Reference: patent US20090291439

Key:
[1] = target: Akt1
[2] = target: Akt2

Sequence of Akt1 (P31749 whole entry): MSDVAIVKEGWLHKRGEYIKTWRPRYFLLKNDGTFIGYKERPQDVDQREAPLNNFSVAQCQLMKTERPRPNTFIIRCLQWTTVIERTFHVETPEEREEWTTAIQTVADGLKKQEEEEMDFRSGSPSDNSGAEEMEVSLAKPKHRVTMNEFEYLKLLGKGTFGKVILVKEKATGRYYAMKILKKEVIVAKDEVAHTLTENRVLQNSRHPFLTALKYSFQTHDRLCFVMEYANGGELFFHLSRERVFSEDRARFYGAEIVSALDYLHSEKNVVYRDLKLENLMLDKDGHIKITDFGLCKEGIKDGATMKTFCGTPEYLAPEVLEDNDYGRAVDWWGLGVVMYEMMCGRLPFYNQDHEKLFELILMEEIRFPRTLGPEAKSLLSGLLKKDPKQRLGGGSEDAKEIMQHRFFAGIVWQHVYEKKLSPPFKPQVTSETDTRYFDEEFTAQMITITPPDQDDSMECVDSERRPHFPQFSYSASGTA

B1: human DUSP13 protein (protein)
chain: MDSLQKQDLRRPKIHGAVQASPYQPPTLASLQRLLWVRQAATLNHIDEVWPSLFLGDAYAARDKSKLIQLGITHVVNAAAGKFQVDTGAKFYRGMSLEYYGIEADDNPFFDLSVYFLPVARYIRAALSVPQGRVLVHCAMGVSRSATLVLAFLMICENMTLVEAIQTVQAHRNICPNSGFLRQLQVLDNRLGRETGRF
dephosphorylation of phosphorylated Ser-473 (FIG. 15, right, second panel from the top) [1]: directly dephosphorylates the phosphorylated Ser-473 thereof
dephosphorylation of phosphorylated Ser-473 (FIG. 15, right, second panel from the top) [2]: directly dephosphorylates the phosphorylated Ser-473 thereof
